From patent US20260258115A1 (MAPP BIOPHARMACEUTICAL, published 2026)

B1: ADI-21004 (antibody, V domains shown)
VH: QVQLQESGGGVVQPGRSLTLSCAASGFTFSSYGMHWVRQAPGKGLDWVAEIWYDGSNKYYVDSVKGRFTISRDNSKNTLYLQMKSLRAEDTAIYYCARDGGYESPFFDKWGQGTLVTVSS
VL: EIVMTQSPDSLGVSLGERATINCKSSQSLYTSNHENSLAWYQQKPGQPPRLLIYWASTRELGVPDRFSGSGSGTDFTLTISSLQAEDVAVYYCQQYHTTPLTFGPGTKVEIK
B2: ADI-21037 (antibody, V domains shown)
VH: QVQLVQSGGGVVQPGRSLRLSCAASGFPFSSYAMHWVRQAPGKGLEWVAVIWYPGGEKYSADSVTGRFTISRDNSKNTLYLQMSSLRVEDTAVYYCARRSVGAFDYWGQGTLVTVSS
VL: DIQMTQSPLSLPVTPGEPASISCRSSQSLLNSNGYNYLDWYLQKPGQSPQVLIYLGSHRASGVPDRFSGSGSGTDFTLRISRVEAEDVGVYYCMQAVQTPYTFGQGTKVEIK
B3: ADI-21022 (antibody, V domains shown)
VH: EVQLVETGPGLVKPSETLSLTCSVSGGSISSYYWSWLRQPPGKGLEWIGYIYNSGRTNYNPSLRSRVTISVDTSQNQFSLRLGSVTAADTAVYYCARGGAGDDLLRGSYRYLNFWGQGTLVTVSS
VL: QSVLTQPPSVSVAPGQTARITCGGNNIGSKSVHWYQQKPGQAPVLVVYDDTERPSGIPERISGSNSGNTATLTISRVEAGDEADYYCQVWDSSSDHPDLLFGGGTKLTVL
B4: ADI-21061 (antibody, V domains shown)
VH: QVQLVQSGAEVKKPGSSVKVSCKASGGTFSNYPISWVRQAPGHGLEWMGRVVPTVGLANYAQNLQGRVTITADTSTNTVYMELRSLRSEDTGLYYCARRAVVDTYAFDIWGQGTLVTVSS
VL: QSALIQPASVSGFPGQSITISCTGASSDVGGYNFVSWYQQHPGKAPKLIIYEVTKRPSGVSNRFSGSESGNTASLTISGLQAEDEADYYCSSFRYTSSIVYVFGSGTKVTVL
B5: ADI-21011 (antibody, V domains shown)
VH: QVQLQESGPGLVKPSETLSLSCTASGDSISDYYWSWIRQPPGKGLEWIGFVSDTWGTNYSPSLTSRVAISLDTSRSQVSLRLRSVTAADTAVYYCVRTHLYDRGGYYLYYFDYWGQGTLVTVSS
VL: DIRMTQSPPSLSASVGDRVTITCRASQRIASYLNWYQQKPDTAPKLLIYAASNLQTGVPSRFSGSGSGTDFTLTISSLQPEDFATYYCQQSYSTPYTFGQGTKLEIK
B6: ADI-21012 (antibody, V domains shown)
VH: QVQLVQSGPAVVKPTQTLTLTCSFSGFSLSTSRMSVSWIRQPPGKALEWLARIDWDGDKYYSTSLKSRLTISKDTSKNQVVLTMTNMDPVDTATYYCARGSYYVSSGYYLNYFDYWGQGTLVTVSS
VL: DIRMTQSPSSLSASVGDRVTITCRTSQTIASYLNWYQQKPGKAPNLLIYAASILQTGVPSRFSGSGSGTDFTLTISSLQPEDFATYYCQQSYGTPQTFGQGTKVEIK
B7: ADI-21026 (antibody, V domains shown)
VH: QVQLVQSGPGLVKPSQTLSLTCTVSGVSISSGGFYWSWIRQHPGKGLEWIGHIYYSRSTYYNPSLKSRVTMSLNMSKNQFSLRLSSVTAADTAVYYCARERREWLHGELDYWGQGTTVTVSS
VL: DIQMTQSPDSLAVSLGEGATINCKSSQSVLDSSKNKNYLAWYQQRPGQPPKLLISWASTRESGVPDRFSGSGSGTDFTLTISSLQAEDVAVYSCQQYFSPPATFGQGTKLEIK
B8: ADI-21008 (antibody, V domains shown)
VH: QVQLQESGAGLLKPSETLSLTCTVYGGTFSGYHWNWIRQPPGKGLEWIGEINHRENTDYNASLESRVTISVDTSKRQFSLKMNSVTVADTAVYYCARGIQVLTNLGTEVRVHQFLDLWGRGTLVTVSS
VL: DIVLTQTPATLSLSPGERATLSCRASQSVSTYLAWYQQKPGQAPRLLIYDASNRAAGIPARFSGSGSGTDFTLTISSLEPEDFAVYYCQQRTNWLPLTFGGGTKVDIK
notes: also called Ab 259
B9: ADI-21007 (antibody, V domains shown)
VH: QVQLVQSGADVKKPGASVKVSCKSSGYTFSNHSMHWVRQAPGQGLEWMGRIHPSSGTTTYAQKFQGRVTMTRDTSTSTVYMEVSSLRSEDTAVYYCARSPFFDFDFWGQGTMVTVSS
VL: SYVLTQPHSVSESPGKTVTISCTRSSGSIASNYVQWYQQRPGSAPTSVIYEDNQRPSGVPDRFSGSIDSTSNSASLTISGLKTEDEADYYCQSYYSSGWVFGGGTKLTVL
B10: ADI-21047 (antibody, V domains shown)
VH: QVQLQQWGAGLLKPSETLSLTCAVYGGSFSGKYWSWIRQPPGKGLEWIGEFNHDGTTYYNPSLKSRVTISADTPKNQFSLTLHSVTAADTAVYYCARLTILSDWGQGTLVTVSS
VL: DIRMTQSPSSLSASVGDRVTITCQASQDISNYLHWYQQKPGKAPKLLIYDASNLETGVPSRFSGSGSGTDFTFTIHSLQPEDLATYYCQQYYDLPRTFGQGTKLEIK
B11: ADI-21042 (antibody, V domains shown)
VH: EVQLVESGPRLVKPSQTLSLTCNVSGVPVNTGGYYWSWIRRHPIKGLEWIGYIYYSGSTHYNPSLRGRATMSVDTSKNQFSLRLSSVTAADTAVYYCAKDTITVLRGVAKKGVFDPWGQGILVTVSS
VL: DIQMTQSPSTLSASVGDRVIITCRASQSISSWLAWYQYKPGKAPNLLIYKATTLDSGVPSRFSGSGSGTEFTLTISSLQPDDFATYYCQQYDSYPTFGQGTKVEIK
notes: also called Ab 290
B12: ADI-21039 (antibody, V domains shown)
VH: EVQLVQSGAEVKKPGASVKVSCKASGYTFISYYIHWVRQAPGQGLEWMGVINPSGGITDYAPKFQGRVSMTRDTSTRTVYLELSSLRSDDTAVYYCARDLCITTSCPRYYDYAWRSYRSEGYFDSWGQGTLVTVSS
VL: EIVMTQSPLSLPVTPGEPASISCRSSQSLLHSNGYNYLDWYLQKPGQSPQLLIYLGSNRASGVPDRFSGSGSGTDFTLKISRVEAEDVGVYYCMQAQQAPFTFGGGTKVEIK
B13: ADI-21019 (antibody, V domains shown)
VH: EVQLLESGGGLVRPGGSLRLSCAVSGFTFSGNALTWIRRAPGKGLEWVSTIGDSGGGSYYADSVKGRFTISRDNSKSTLYLQMNSLTAEDTAVYYCARDPYGDYRDYYGIDVWGQGTTVTVSS
VL: EIVMTQSPLSLPVTPGEPASISCRSSQSLRHSNGYNYVDWYLQKPGQSPQLLIYLGSNRASGVPDRFRGSGSGTDFTLKISRVEAEDVGVYYCMQALQTPLTFGQGTKVEIK
B14: ADI-21055 (antibody, V domains shown)
VH: EVQLVESGGGVVQPGRSLRLSCVGSGFTFSRYGMQWVRQAPGKGLEWAAVIWNDGSNEHYADSVKGRFTISRDNSKNTMYLQMNSLRAEDTALYYCAREGEYSSSWSHWSYLDLWGRGTLVTVSS
VL: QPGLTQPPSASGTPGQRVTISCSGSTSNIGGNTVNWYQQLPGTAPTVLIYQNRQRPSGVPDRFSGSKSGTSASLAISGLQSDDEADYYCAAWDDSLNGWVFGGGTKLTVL
B15: ADI-21054 (antibody, V domains shown)
VH: QVQLVESGGGVVQPGRSLRLSCAASGFSFSNYGMHWVRQAPGKGLEWVVGISFDGSYIFHGGSVTGRFNISRDNSKNTLYLQVNSVRAEDTAVYYCARDPQYYDDWSGYSGLLHYYLYMDVWGKGTTVTVSS
VL: DIQLTQSPSTLSASVGDRVTITCRASQSIGTSLAWYQQIPGKAPKLLIYRASSLESGVPSRFSGGGSGTQFTLTISSLQPDDFATYYCQQYNNYSPTFGQGTKLEIK
B16: ADI-21002 (antibody, V domains shown)
VH: QVQLVESGPGLVKPSGTLSLTCAVSGDSINSGNWWNWVRQAPGKGLEWIGEIYHRGTSNYNPSLKSRVTISVDQSKNQFSLKVTSLTAADTAIYYCARARGYSSGPSYYYYLDVWGKGTLVTVSS
VL: EIVMTQSPSSLSASVGDRVTISCRASQSISTYLNWYQQKPGKAPKVIIYGASNLQSGVPSRFSGSGSGTDFTLTISSLQPEDFATYYCQKSFNPCVFGQGTKVDIK
B17: ADI-21046 (antibody, V domains shown)
VH: EVQLVESGAEAKKPGESLRISCTVSGYSFSKYWVGWVRQTPGKGLEWMGIIDPTDSDTRYSPSFQGQVTISVDNSINTAYLQWSSLKASDTAIYYCARRGQAKCVGNCPRDFMDVWGKGTTVTVSS
VL: SYVLTQPPSVSGAPGQRVTISCAGSSSNIGAGYEVHWYQQLPGTAPKLLIYANRNRPSGVPDRFSGSRSGTSASLAISGLQAEDEADYYCQSYDNNLSGSWVFGGGTKLTVL
B18: ADI-21003 (antibody, V domains shown)
VH: QVQLQQWGAGLLKPSETLSLSCAVSGGSFSGYYWTWIRQPPGKGLEWIGEINHSGSTNYNPSLKSRVTISVDTSKNQFSLKLSSVTAADTAVYYCARARYFDYLAHWSFDLWGRGTLVTVSS
VL: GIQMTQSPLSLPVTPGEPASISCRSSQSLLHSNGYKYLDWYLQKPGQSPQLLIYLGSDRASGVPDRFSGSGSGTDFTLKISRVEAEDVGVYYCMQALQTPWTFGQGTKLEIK
B19: ADI-21043 (antibody, V domains shown)
VH: QVQLVQSGAEVKKPGASVKVSCKASGYTFTSYGITWVRQAPGQGLEWMGWISTYNGKTNYAQKFKGRVTMTTDTSTSTAYVELTSLRSDDTAVYYCAREFPTRIVDSFYMDVWGKGTTVTVSS
VL: SYELTQPPSVSVAPGQTARITCGGSNIGSETVHWYQQKPGQAPVLVVYGDSDRPSGIPERFSGSNSGNTATLTISRVEAGDEADYYCQVWDSRSDDFHVFGSGTKLTVL

Legend:
Assay in all cases: BLI, IgG
[1] = biological target: T1, RSV postfusion F (postF), subtype A (respiratory syncytial virus, subtype A, UniProt P03420 26-513)
T1 construct: also called F ΔFP; Postfusion subtype A

[2] = biological target: T2, RSV postfusion F (postF), subtype B (respiratory syncytial virus, subtype B)
T2 construct: also called F ΔFP; Postfusion subtype B

[3] = biological target: RSV prefusion F (preF), subtype A (respiratory syncytial virus, subtype A, UniProt P03420 26-513)
[4] = biological target: RSV prefusion F (preF), subtype B (respiratory syncytial virus, subtype B)

Binder	Kd [1]	Kd [2]	Kd [3]	Kd [4]	binding result [3]
B1	0.54 nM	0.798 nM	4.59 nM	10.2 nM	
B2	0.248 nM	3.17 nM	1.95 nM	4.81 nM	
B3	0.256 nM	0.357 nM		17.4 nM	no binding
B4	0.142 nM	2.48 nM	1.1 nM	2.76 nM	
B5	0.162 nM	0.356 nM	1.41 nM	0.982 nM	
B6	0.214 nM	0.28 nM	0.371 nM	1.92 nM	
B7	0.945 nM	1.43 nM	6.35 nM	3.99 nM	
B8	0.918 nM	1.45 nM	5.68 nM	4.14 nM	
B9	0.171 nM	0.171 nM	1.48 nM	1.72 nM	
B10	0.29 nM	0.262 nM	2.11 nM	0.756 nM	
B11	0.287 nM	0.398 nM	2.96 nM	1.18 nM	
B12	0.24 nM	6.31 nM	1.71 nM	12.7 nM	
B13	0.154 nM	0.168 nM	0.182 nM	0.962 nM	
B14	0.185 nM	4.35 nM	1.1 nM	2.98 nM	
B15	0.372 nM	0.306 nM	0.185 nM	0.139 nM	
B16	0.214 nM	6.39 nM	2.36 nM	8.6 nM	
B17	0.187 nM	0.224 nM	1.66 nM	0.694 nM	
B18	0.44 nM	0.421 nM	4.75 nM	0.987 nM	
B19	1.65 nM	1.93 nM	0.111 nM	0.154 nM	
